The values below come from patent US5296352.

The target of the assay is recombinant hirudin variant HV1 (Hirudo medicinalis).

Consider “Staphylococcus aureus strain V8 protease (from UniProt P0C1U8) (enzyme)”, for which the extent of digestion (cleavage of rHV1) stood at 97%.
As for lysyl endopeptidase (enzyme), the extent of digestion (cleavage of rHV1) was 100%.
